This assay has as its target α-synuclein, 140-residue isoform (αSyn-140) (human) (UniProt P37840).

This is an account of results in article PMC10873642.

As to “α-synuclein splice isoform αSyn-112 (lacking exon 5) (from UniProt P37840-2 1-112) (natural protein)”, the decrease in aggregation half-time (t1/2) by ThT fluorescence of 90% (45 µM) αSyn-140 co-incubated with 10% (5 µM) αSyn-112 monomers, against 100% (50 µM) αSyn-140 is 25%.
